Laboratory results reported in patent publication US20230068663A1 (University of Texas, published 2023).
Positions count from the first letter of the chain named.

B1: B2-30 (antibody, human IgG1, V domains shown)
VH: QVQLVESGGGLVQPGGSLRLSCAASGFTFSSYDMHWVRQATGKGLEWVSAIGTAGDTYYPGSVKGRFTISRENAKNSLYLQMNSLRAGDTAVYYCARAKEYCSGGSCQDAFDIWGQGTMVSVSS
VL: QSPSSLSASVGDRVTITCRASQSIRTYLNWYQQKPGKDPELLIYAATSLQSGVPSRFTGSGSGTDFTLTISSLQPEDFATYYCQQSYSAPVFTFGQGTKLEIK
notes: also called B2-30_HC; B2-30_LC
B2: B2-9 (antibody, human IgG1, V domains shown)
VH: QVQLVQSGAEVKKPGASVKVSCKASGYTFTSYGISWVRQAPGQGLEWMGWISAYNGNTNYAQKLQGRVTMTTDTSTSTAYMELRSLRSDDTAVYYCARDGYGMDVWGQGTTVTVSS
VL: QSPSSLSASVGDRVTITCRTSHTVNSYLNWYQQEPGKAPKLLIYAASNLQSGVPSRFSGSGSGTDFSLTIHNLQPEDFATYYCQQSYRTPLTFGQGTKVDIK
notes: also called B2-9_HC; B2-9_LC
B3: B2-22 (antibody, V domains shown)
VH: B2 VH with D99V, Y101S, G102Y, M103G, V105Y, T111L
VL: QSPSSLSASVGDRVTITCRASQGISNYLAWYQQKPGKVPKLLIYAASTLQSGVPSRFSGSGSGTDFTLTISSLQPEDVATYYCQKYNSAPLTFGGGTKLEIK
notes: also called B2-22_HC; B2-22_LC
B4: B2-4 (antibody, V domains shown)
VH: QVQLVQSGPTVRKPGASVRVSCKASGYPFTSNGMSWVRQAPGQGLEWMGWISTNSGNTNYAQKFQGRVTLTTDTSSTTTYLDLRSLTSDDTAIYYCARDVQYRMDVWGQGTTVTVSS
VL: QSVLTQPPSASGTPGQRVTISCSGSRSNIGSNPVNWYQHLPGTAPKLLVYSNNRRPSGVPDRFSGSKSGTSASLSISGLQSEDEGVYYCAAWDDNVHGVFGGGTKVTVL
notes: also called B2-4_HC; B2-4_LC
B5: B2-11 (antibody, V domains shown)
VH: QVQLQQSGPGLVKPSQTLSLTCAISGDSVSSNSAAWNWIRQSPSRGLEWLGRTYYRSKWYNDYAVSVKSRITINPDTSKNQFSLQLNSVTPEDTAVYYCARQDESAADDAFDIWGQGTLVIVSS
VL: QSVLTQPPSASGTPGQRVTISCSGSKSNVGNNFVHWYQQLPGTAPKLLLYSNLERSSGVPERFSGSKSGTSAYLAISGLRSDDEADYYCAAWDDSLPGWVFGGGTKLTVL
notes: also called B2-11_HC; B2-11_LC
B6: B2-2 (antibody, V domains shown)
VH: QVQLVQSGAEVKKPGASVKVSCKASGYTFSDYGFSWVRQAPGQGLEWMGWISGYNGNTNYAQKFQGRVTMTIDASTSTAYMELRSLKSDDTAVYYCARLLLGYYGMDVWGQGTTVTVSS
VL: DIVMTQSPSSLSASVGDRVTLTCRASQSIGNYLNWYQQKPGKAPNLLIYAASSLQSGVPSRFSGSGSGTDFTLTISSLQPEDFATYYCQQSFSIPPITFGQGTRLEIK
notes: also called B2-2_HC; B2-2_LC
B7: B2-14 (antibody, V domains shown)
VH: QVQLVQSGAEVKKPGSSVKVSCKASGGTFSSYAISWVRQAPGQGLEWMGGIIPIFGTANYAQKFQGRVTITADESTSTAYMELSSLRSEDTAVYYCARASMVETYFDYWGQGTMVTVSS
VL: QSVLTQPRSVSGSPGQSVTISCTGTSSDVGGYNYVSWYQQHPGKAPKLMISEVSKRPSGVPDRFSGSKSGNTASLTVSGLQAEDEADYYCSSYAGGYTPYVFGTGTKVTVL
notes: also called B2-14_HC; B2-14_LC
B8: B2-23 (antibody, V domains shown)
VH: QVQLVQSGAEVKKPGASVKVSCKASGYTFTHSYIHWVRQAPGQGLEWMGVINPVGGSTTYAQRFQGRVTMTRDTSTSTVYMELSSLRSEDTAVYYCARAGGDGYNPYFDYWGQGTLVTVSS
VL: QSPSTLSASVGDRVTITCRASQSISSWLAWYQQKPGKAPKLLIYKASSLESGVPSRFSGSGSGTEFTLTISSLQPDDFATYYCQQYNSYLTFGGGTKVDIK
notes: also called B2-23_HC; B2-23_LC
B9: B2-26 (antibody, V domains shown)
VH: QVQLVQSGAEVKKPGASVKVSCKASGYTFTSYGISWVRQAPGQGLEWMGWISAYNGNTNYAQKLQGRVTMTTDTSTSTAYMELRSLRSDDTAVYYCARDRGGWFDPWGQGTLVIVSS
VL: QSPSSLSASVGDRVTITCRASQSISNFVNWYQQKPGEVPKLLIYGASSLQSGVPSRFSGSGSGTDFTLTISSLQPEDFATYYCQQGYSVPLTFGGGTTVDIK
notes: also called B2-26_HC; B2-26_LC
B10: B2-3 (antibody, V domains shown)
VH: QVQLVQSGAEVKKPGASVKVSCRTSGYTFSSYGISWVRQAPGQGLEWMGWISGNTGNTKYTPKLQGRVTMTTDTSTSTAYMELRSLRSDDTAVYYCARDRGIAAGRAFDIWGQGTMVTVSS
VL: QPVLTQPPSASGTPGQRVTISCSGSSSNIGTNPVNWYQQVPGTGPKLLIYNNNQWPSGVPDRFSGSKSATSASLAIYGLQSGDEAHYYCSSWDDSLSAWVFGGGTKVTVL
notes: also called B2-3_HC; B2-3_LC
B11: B2-13 (antibody, V domains shown)
VH: B7 VH with A99S, S100D, M101Y, V102G, E103D, T104S, M114L, T116S
VL: QAVVTQPASVSGSPGQSVSISCTGTSSDVGGFNYVSWYQQHPGKAPKLMIYDVSNRPSGVSNRFSGSKSGNTASLTISGLQAEDEADYYCSSYTSSTAPYVFGTGTKVTVL
notes: also called B2-13_HC; B2-13_LC
B12: B2-27 (antibody, human IgG1, V domains shown)
VH: B7 VH with A99E, M101Y, V102S, E103S, T104S, Y105S, M114T, T116S
VL: B11 VL with A2P, V4L, V18I, S19T, F32Y, T72S, T97S, A98T
notes: also called B2-27_HC; B2-27_LC
B13: B2-1 (antibody, V domains shown)
VH: EVQLVQSGAEVKKPGSSVKVSCKASGGTFSSYAISWVRQAPGQGLEWMGGIIPIFGTANYAQKFQGRVTITADKSTSTAYMELSSLRSEDTAVYYCARGNQGDTAFDIWGQGTTVIVSS
VL: B11 VL with A2S, V3A, V4L, T5N, V18I, S19T, F32Y, T97S, A98T
notes: also called B2-1_HC; B2-1_LC
B14: HCB2-1c (antibody, V domains shown)
VH: EVQLVQSGAEVKKPGASVKVACKASGYTFTDYYIHWVRQAPGQGLEWMGIVNANGGDTNYAQQFQGRVTMTRDTSTSTVYLELTSLRSDDTAVYYCARDWYYYSSGSFPFDYWGQGTLVSVSS
VL: AIQMTQSPSSLSASVGDRVSITCRASQSISSFLNWYQQRPGKAPELLIYGASSLQSGVPSRFSGSGSGTDFTLTISSLQPEDFATYYCQQSYSIPITFGQGTQLEIK
B15: HCB2-1d (antibody, V domains shown)
VH: B14 VH
VL: DVQMTQSPSSLSASVGDRVSITCKASQDVSIAVAWYQQKPGKAPKLLIYSASYRYTGVPDRFSGSGSGTDFTLTISSLQPEDFAVYYCQQHYITPLTFGAGTKLEIK
B16: HCB2-2 (antibody, V domains shown)
VH: QVQLVQSGAEVKKPGASVKVSCKASGYIFNTYGISWVRQAPGQGLEWMGWTNVYNSNTDSGHKFQGRVTMTTDTSTDTAYMELRSLRSDDTAVYYCARDPGSAIFDMWGQGTMVTVSS
VL: B14 VL with A1D, I2V, Q103R
notes: also called HCB2-2_HC; HCB2-2_LC
B17: HCB2-4 (antibody, V domains shown)
VH: QVELQESGPGLVKPSETLSLTCTVSGDAIKDKYWSWVRQPPGKGLEWIGYISNSGSTNYNPSLKSRVSLSVDTSKNQFSLKQTSVTAADTATYYCARGSGYTAFDIWGQGTMVTVSS
VL: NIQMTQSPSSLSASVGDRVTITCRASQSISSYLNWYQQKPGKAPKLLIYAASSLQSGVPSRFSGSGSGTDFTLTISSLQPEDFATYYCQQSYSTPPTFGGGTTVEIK
notes: also called HCB2-4_HC; HCB2-4_LC
B18: HCB2-13 (antibody, V domains shown)
VH: QVQLVESGGGLVQPGGSLRLSCAASGFTLSSYAMSWVRQAPGEGLEWVSSINSGGSTYYAGSVRGRFTISRDNSKNTLYLQMNSLRAEDTAVYYCAKAKSYSSDLDHWGQGTTVTVSS
VL: DVVMTQSPSSLSVSAGEKVTMSCKSSQSLLNSGNQKTYLAWYQQKPGQPPKLLIYGASTRESGVPDRFTGSGSGTDFTLTISSVQAEDLAVYYCQNDHSYPFTFGSGTKVEIKR
notes: also called HCB2-13_HC; HCB2-13_LC

These binders were tested against T1, LILRB2-His antigen (UniProt Q8N423 22-460, limits assumed) (assay: indirect ELISA, coated LILRB2-His).
T1 construct: Coated on ELISA plates; also used for phage panning; also called LILRB2 antigen; not shown: His tag
Description: ELISA binding EC of LILRB2 antibodies. The ELISA binding EC₅₀ of these 24 antibodies were measured by indirect ELISA. […] After incubation, HRP-conjugated goat anti-human Fc secondary antibody was incubated with the plates. The TMB substrate was added for color development and measurement of absorbance at 450 nm.

First: B1
Second: B2
The EC50 of the first is 2-fold higher: 1.19 nM for the first, 0.608 nM for the second.

Going from B3 to B4, the EC50 rises from 0.348 nM to 1.76 nM (5.1-fold).

Going from B5 to B6, the EC50 falls from 3.79 nM to 1.6 nM (2.4-fold). The second is the more potent here.

B7 and B8 are within 1.5-fold of each other in EC50: 1.97 nM for the first, 2.44 nM for the second.

B9 and B10 are within 1.5-fold of each other in EC50: 1.02 nM for the first, 0.787 nM for the second.

Compared with B11, B12 is 74-fold higher in EC50: 5.15 nM for the first, 379 nM for the second. The first is the more potent here.

These binders were tested against T2, LILRB2 chimeric receptor on LILRB2 reporter cells (extracellular domain of LILRB2 fused with … (UniProt Q8N423 22-460)) (assay: flow cytometry, LILRB2 reporter cells).
T2 construct: extracellular domain;domain: transmembrane/intracellular domains; associates with DAP12; also called LILRB2-expressing reporter cells
Source text: FIGS. 1A-C. Screening specific monoclonal antibodies for LILRB2. […] Binding of monoclonal antibodies was screened using flow cytometer on LILRB2 reporter cells. Bound antibodies were detected with Allophycocyanin (APC)-labeled goat anti-human IgG secondary antibody. (FIG. 1B) Quantification of binding ability of monoclonal antibodies to LILRB2 reporter cells.
Screening specific monoclonal antibodies for LILRB2. The inventors employed a stable reporter cell system to detect the binding ability of selected monoclonal antibodies to LILRB2. In this chimeric receptor reporter system, the extracellular domain (ECD) of LILRB2 is fused with transmembrane/intracellular domains of PILRb that associates with the adaptor protein DAP12 containing an immunoreceptor tyrosine-based activation motif. 27 monoclonal antibodies were screened. The LILRB2 reporter cells were incubated with selected monoclonal antibody, then labeled with (APC) goat anti-human IgG secondary antibody. […] The inventors generated LILRBAs and LILRBs reporters stably transduced with each receptor's extracellular domain (ECD).

First: B1
Second: B2
The “% of cells anti-hIgG APC+” value of the first is higher: 4.92% for the first, 0.09% for the second.

Compared with B3, B4 is higher in “% of cells anti-hIgG APC+” value: 0.19% for the first, 0.7% for the second.

Going from B5 to B6, the “% of cells anti-hIgG APC+” value falls from 0.28% to 0.14%.

Compared with B7, B8 is lower in “% of cells anti-hIgG APC+” value: 3.74% for the first, 0.47% for the second.

First: B9
Second: B10
The “% of cells anti-hIgG APC+” value of the first is lower: 0.12% for the first, 0.58% for the second.

Compared with B13, B11 is lower in “% of cells anti-hIgG APC+” value: 1.69% for the first, 1.23% for the second.

B12 was tested, and the “% of cells anti-hIgG APC+” value was 1.1%.

These binders were tested against T3, full extracellular domain (ECD) of LILRB2 fused to Fc fragment of mouse IgG2a (human; mouse, UniProt Q8N423 22-460) (assay: ELISA, coated human LILRB2 ECD-mIgG2a Fc [panel A]).
T3 construct: extracellular domain; also called B2-ECD; wildtype B2-ECD; not shown: Fc fragment of mouse IgG2a
Source text: FIGS. 19A-B. ELISA binding measurement of antibodies to human and non-human primate (cynomolgus monkey, cyno) LILRB2 recombinantly produced in HEK293 cells. (FIG. 19A) ELISA binding to human LILRB2. (FIG. 19B) ELISA binding to cyno-LILRB2. The fusion proteins of the extracellular domain (ECD) of human LILRB2 or NHP-LILRB2 with Fe of mouse IgG2a were used to coat ELISA plates and antibodies were titrated in different concentrations as indicated in the graph.

B14: binds.
B15: binds.
B16: binds.
B17: binds.
B18: binds.
